{"source": "paper PMC10848707", "binders": {"B1": {"name": "recombinant influenza A virus nucleoprotein (A/WSN/1933), P15682 (natural protein)", "chain": "MATKGTKRSYEQMETDGERQNATEIRASVGKMIGGIGRFYIQMCTELKLSDYEGRLIQNSLTIERMVLSAFDERRNKYLEEHPSAGKDPKKTGGPIYRRVDGKWMRELILYDKEEIRRIWRQANNGDDATAGLTHMMIWHSNLNDATYQRTRALVRTGMDPRMCSLMQGSTLPRRSGAAGAAVKGVGTMVMELIRMIKRGINDRNFWRGENGRRTRIAYERMCNILKGKFQTAAQRAMVDQVRESRNPGNAEFEDLIFLARSALILRGSVAHKSCLPACVYGPAVASGYDFEREGYSLVGIDPFRLLQNSQVYSLIRPNENPAHKSQLVWMACHSAAFEDLRVSSFIRGTKVVPRGKLSTRGVQIASNENMETMESSTLELRSRYWAIRTRSGGNTNQQRASSGQISIQPTFSVQRNLPFDRPTIMAAFTGNTEGRTSDMRTEIIRLMESARPEDVSFQGRGVFELSDEKAASPIVPSFDMSNEGSYFFGDNAEEYDN"}}, "target": "T1, recombinant influenza A virus nucleoprotein (A/WSN/1933) (influenza A virus (A/WSN/1933)), P15682", "T1 chain": "B1 chain", "test": "negative staining EM; freshly assembled RNP-like mixture (NP with 12-nt RNA) diluted to 0.05 mg/ml, 2% sodium silicotungstate pH 7.0", "settings": "remark: other sources report otherwise", "note": "“And” between values parts separate entries of the source, which are not always exact repeats. Equal entries are not always repeated.", "data": [{"binder": "B1", "values": [{"measurement": "stoichiometry N", "value": "3 and 4"}]}]}
